The values below come from patent publication US20050203281A1, “Production of recombinant fragments of muscle acetylcholine receptor and their use for ex vivo immunoadsorption of anti-ch receptor antibodies from myasthenic patients” (priority 2002, published 2005).

Entries after “also recorded” stand apart in the source; their conditions may differ.

In one test the target is alpha1-210 fragment (Homo sapiens, UniProt P02708). Conditions: read-out: concentration of unlabeled toxin giving 50% inhibition of 125I-alpha-BTX binding.
Test [1] concerns anti-AChR antibodies from MG sera. Briefly: Immunoadsorption of anti-AChR antibodies from MG sera by CNBr-Sepharose-immobilized subunit domains, RIA with human AChR from TE671 cells. Type of test: binding. Conditions: for immunoadsorption of anti-AChR antibodies (in words): immobilized on Sepharose-CNBr. As to the method:
FIG. 6 illustrates the immunoadsorption of anti-AChR antibodies from MG sera using immobilized alpha1-210 (black bars), gamma1-218 (grey bars) and epsilon1-219 (blank bars). Each subunit has been expressed in the yeast Pichia pastoris and the purified proteins have been covalently immobilized on CNBr-Sepharose beads. 64 MG positive sera were assayed for binding to human AChR after incubation with alpha1-210 immobilized on CNBr-Sepharose (together with BSA) or with just BSA immobilized on the same insoluble matrix. 2.5 ul of each MG patient serum were incubated with 0.2 ug immobilized alpha1-210 mixed with BSA or the same amount of BSA at […] for 2-3h (in a total volume of 0.16 ml) followed by centrifugation. Samples of the supernatants, each containing an amount corresponding to 0.9 ul of the treated MG sera were subsequently used in a typical RIA MG diagnostic test (Lindstrom et al., Meth. Enzymol. 74, 432460, 1981) with human AChR from TE671 cells. The percentage of immunoadsorption was estimated as described in the Example 3. Samples were processed in duplicates. Results shown (black bars) are an average of two experiments. Sera are sorted in decreasing percentage of immunoadsorption to immobilized alpha1-210.
FIG. 7 illustrates the immunoadsorption of anti-AChR antibodies from MG sera against immobilized alpha1-210 (black bars), gamma1-218 (gray bars) and a mix of both immobilized alpha1-210 and gamma1-218 (hatched bars). 9 MG sera were assayed for binding to human AChR after incubation of 20 fmoles anti-AChR MG antibodies with alpha1-210 (1 ug), or gamma1-218 (1 ug) or alpha1-210/gamma1-218 mix (containing 1 ug of each subunit) immobilized on CNBr-Sepharose. Incubation with just BSA immobilized to the same insoluble matrix served as a control to calculate the percent immunoadsorption against each of the subunits and the mix of both. After incubation with the Sepharose-immobilized proteins, sera were screened in a typical RIA experiment using TE671 AChR. The percentage of immunoadsorption was estimated as described in the Example 3. Samples were processed in duplicates. Results shown are an average of two experiments.
Immunoadsorption of MG autoantibodies by immobilized alpha1-210. 0.1 mg alpha1-210 mixed with 1.4 mg BSA was covalently bound to 0.5 gr CNBr-Sepharose according to manufacturer's protocol (Amersham). BSA was simply added to increase the protein/Sepharose ratio because the ratio of recombinant protein to Sepharose beads used would otherwise be too small; BSA is not necessary for larger scale experiments. In parallel, 1.5 mg BSA was bound to the same amount of CNBr-Sepharose under the same conditions as control. 2.5 ul MG patient sera were incubated with 0.2 ug immobilized alpha1-210 mixed with BSA, or the same amount of immobilized BSA alone, at 4° C. for 2-3 h (in a total volume of 0.16 ml) followed by centrifugation for bead precipitation. Samples of the supernatants, each containing an amount corresponding to 0.9 ul of these treated MG sera were subsequently used in a typical RIA MG diagnostic test (Lindstrom et al., Meth. Enzymol. 74, 432460, 1981) with human AChR from TE671 cells. The percentage of immunoadsorption was estimated as the ratio between the reduction in immunoprecipitated radiolabeled human AChR after incubation with alpha1-210 and the immunoprecipitated radiolabeled human AChR without incubation with alpha1-210 (incubation with plain immobilized BSA). 64 MG positive sera were assayed for binding to human AChR after incubation with immobilized alpha1-210 or BSA. […] We also tested immunoadsorption of the same set of MG sera by incubating 0.2 ug immobilized alpha1-210 with a fixed amount of anti-AChR antibodies (20 fmoles in variable volumes of MG sera depending on their titer) rather than a fixed serum volume.
Immunoadsorption of MG autoantibodies by immobilized gamma1-218 or epsilon1-219 domains. […]

Test [2] shares this test system. Briefly: Immunoadsorption of anti-AChR antibodies from MG sera by immobilized epsilon1-219, RIA with human AChR from TE671-epsilon cells. It is filed as binding. The procedure: A subset of […] sera was also tested with gamma1-218 immobilized on CNBr-Sepharose (gray bars) and a subset of 22 sera was screened against epsilon1-219 immobilized on CNBr-Sepharose (blank bars) as described in the Example 3. Sera which have not been tested for immunoadsorption with epsilon1-219 are indicated in the X axis with open circles and sera which have not been tested on both gamma1-218 and epsilon1-219 are indicated with filled circles.
Immunoadsorption of MG autoantibodies by immobilized gamma1-218 or epsilon1-219 domains. 0.1 mg[…] of purified gamma1-218 or epsilon 1-219 mixed with 1.4 mg BSA was covalently immobilized on 1 gr of CNBr-Sepharose according to manufacturer's protocol. In parallel, an identical column was prepared with 1.5 mg BSA, to serve as control. Variable amounts of MG patient sera containing 20 fmoles of anti-AChR antibodies were incubated with 1 ug immobilized gamma1-218 mixed with BSA or the same amount of BSA at 4° C. for 2-3 h followed by centrifugation Samples of the supernatants, each containing an amount corresponding to 6 fmoles of preadsorbed anti-AChR antibody, were subsequently tested in a typical RIA MG diagnostic test as above. Sera which had been incubated with gamma1-218 were screened with the human AChR from TE671 cells (which contains alpha, beta, gamma and delta subunits) whereas sera immunoadsorbed with epsilon1-219 were screened with human AChR from TE671-epsilon cells(which contains alpha, beta, gamma and epsilon subunits) (Beeson et al., Neurology, 47,1552-1555, 1996). The percentage of immunoadsorption was estimated as above. Several MG sera from the group of the sera tested with immobilized alpha1-210 were assayed for binding to human AChR after incubation with immobilized gamma1-218 (43 sera) or epsilon1-219 (22 sera) or BSA only. Incubation with gamma1-218 led to a 29-56% reduction for 16% of the tested sera (7 sera out of 43), whereas it caused a 15%-30% reduction in another 28% of the tested sera (12 sera) (FIG. 6, gray bars). Other tested MG sera reached up to 68% immunoadsorption by gamma1-218 (not shown). […]

Test [3] shares this test system. The test is described as follows: Immunoadsorption of anti-AChR antibodies from MG sera by CNBr-Sepharose-immobilized subunit domains, RIA with human AChR from TE671 cells. Type of test: binding. The following applies: expressed in E. coli, refolded, similarly immobilized, same MG sera.

Regarding alpha-bungarotoxin [alpha-BTX], on alpha1-210 fragment, the IC50 was 5 nM.

B1: beta1-222: extracellular domain of human muscle AChR beta subunit, Pichia pastoris, FLAG and six-histidine tag (protein)
chain: DYKDDDDKMTPGALLMLLGALGAPLAPGVRGSEAEGRLREKLFSGYDSSVRPAREVGDRVRVSVGLILAQLISLNEKDEEMSTKVYLDLEWTDYRLSWDPAEHDGIDSLRITAESVWLPDVVLLNNNDGNFDVALDISVVVSSDGSVRWQPPGIYRSSCSIQVTYFPFDWQNCTMVFSSYSYDSSEVSLQTGLGPDGQGHQEIHIHEGTFIENGQWEIIHKPSRLIQPPG
modifications: glycosylated
B1: the “immunoadsorption of anti-AChR antibodies (in words)” value (“immunoadsorption … (in words)” for short) in test [1] is recorded as “lower but very significant percentages”.

B2: epsilon1-219 (protein)
chain: DYKDDDDKKNEELRLYHHLFNNYDPGSRPVREPEDTVTISLKVTLTNLISLNEKEETLTTSVWIGIDWQDYRLNYSKDDFGGIETLRVPSELVWLPEIVLENNIDGQFGVAYDANVLVYEGGSVTWLPPAIYRSVCAVEVTYFPFDWQNCSLIFRSQTYNAEEVEFTFAVDNDGKTINKIDIDTEAYTENGEWAIDFCPGVIRRHHGGATDGPGETDVIYSLIIRRK
modifications: glycosylated
As for B2, in test [2] (27% of screened sera (6/22)), the “reduction of anti-AChR antibodies, best-adsorbed sera” value is recorded as 30-54%. The “reduction of anti-AChR antibodies, intermediate sera” value in test [2] (another 45% of the sera (10/22)) is given as 15%-30%. Besides, the “immunoadsorption … (in words)” value in test [2] (immobilized on Sepharose-CNBr) was “lower but very significant percentages; also recorded: considerable amounts”.

B3: gamma1-218: extracellular domain of human muscle AChR gamma subunit, Pichia pastoris, FLAG and six-histidine tag (protein)
chain: DYKDDDDKRNQEERLLADLMQNYDPNLRPAERDSDVVNVSLKLTLTNLISLNEREEALTTNVWIEMQWCDYRLRWDPRDYEGLWVLRVPSTMVWRPDIVLENNVDGVFEVALYCNVLVSPDGCIYWLPPAIFRSACSISVTYFPFDWQNCSLIFQSQTYSTNEIDLQLSQEDGQTIEWIFIDPEAFTENGEWAIQHRPAKMLLDPAAPAQEAGHQKVVFYLLIQRK
modifications: glycosylated
In the case of B3, in test [1] (16% of tested sera (7 of 43), 1 ug immobilized protein, 20 fmoles antibody), the “reduction of anti-AChR antibodies, best-adsorbed sera” value is listed as 29-56%. Further, the “reduction of anti-AChR antibodies, intermediate sera” value in test [1] (another 28% of tested sera (12 sera)) was 15%-30%. Moreover, the “immunoadsorption … (in words)” value in test [1] is “lower but very significant percentages; also recorded: large fractions; also recorded: considerable amounts”. Also, the “maximal immunoadsorption in other tested MG sera” value in test [1] (other tested MG sera (not shown)) is on record as “up to 68%”. For the same molecule, the “immunoadsorption of serum no. 3” value in test [1] (serum no. 3, 1 ug of each immobilized subunit, 20 fmoles antibody) is given as 22%.

B4: alpha1-208: extracellular alpha domain of human AChR expressed in E. coli and refolded according to Tsouloufis et al. (protein)
chain: SEHETRLVAKLFKDYSSVVRPVEDHRQVVEVTVGLQLIQLINVDEVNQIVTTNVRLKQQWVDYNLKWNPDDYGGVKKIHIPSEKIWRPDLVLYNNADGDFAIVKFTKVLLQYTGHITWTPPAIFKSYCEIIVTHFPFDEQNCSMKLGTWTYDGSVVAINPESDQPDLSNFMESGEWVIKESRGWKHSV
For the molecule B4, the “immunoadsorbing efficiency compared with yeast-expressed alpha domain” value in test [3] is reported as “significant but much lower”; in test [3] (listed as alpha-subunit fragment expressed in E. coli), “much lower level”.
